Source: paper PMC4920195, “Non-Smc element 5 (Nse5) of the Smc5/6 complex interacts with SUMO pathway components” (Biology Open, 2016)

B1: Nse5-LexA (wild type) [S. cerevisiae] / Nse6-AD [S. cerevisiae] (parent complex)
chain 1: MDGALINSVLYVSPRNGAHYFVELTEKHLLAFEMLNSMCLLENYDHVLLFLECQFGKSHNLAVIPFDIILVLFTLSTLSEYYKEPILRANDPYNTSRETLSRRALKLLQKYLAILKEFDSEQYNLYDLELLRCQFFLAIDTLTPKKQKWGFDRFRRTKSESGVTYRQNASVDPELDQAKTFKNPYRSYISCLEQRNTILGNRLLNLKLNEPGEFINMILWTLSNSLQESTPLFLSSHEIWMPLLEILIDLFSCRQDYFIQHEVAQNVSKSLFVQRLSESPLAVFFESLNTRNFANRFSEYVFLNCDYKLPSDNYATPVHPVYNGENTIVDTYIPTIKCSPLYKSQKSLALRRKLIGSCFKLLLRVPDGHRLITPRIVADDVIQGISRTLASFNDILQFKKFFMTENLSQESYFIPLLAEGTLSEILKDTQECVVILTLVENLSDGVSFCNEVIGLVKSKCFAFTEQCSQASYEEAVLNIEKCDVCLLVLLRYLLHLIGTEAILDAKEQLEMLHAIEKNDSGRRQWAKALNLGNDPPLLYPIVSQMFGVHDKSVIIE
chain 2: MGSVNSSPNEEFETVPDSQISGFDSPLIPTSVGSYFRDDDDDEKVHPNFISDPENDSLNSDEEFSSLENSDLNLSGAKAESGDDFDPILKRTIISKRKAPSNNEDEEIVKTPRKLVNYVPLKIFNLGDSFDDTITTTVAKLQDLKKEILDSPRSNKSIVITSNTVAKSELQKSIKFSGSIPEIYLDVVTKETISDKYKDWHFISKNCHYEQLMDLEMKDTAYSFLFGSSRSQGKVPEFVHLKCPSITNLLVLFGVNQEKCNSLKINYEKKENSRYDNLCTIFPVNKMLKFLMYFYSDDDNDDVREFFLKAFICLILDRKVFNAMESDHRLCFKVLELFNEAHFINSYFEIVDKNDFFLHYRLLQIFPHLQSALLRRRFSEKQGRTETIQQNIIKEFNEFFDCKNYKNLLYFILTMYGSKFIPFGPKCQVTEYFKDCILDISNETTNDVEISILKGILNLFSKIR
B2: Nse5-LexA (wild type) [S. cerevisiae] / Smt3-AD [S. cerevisiae] (parent complex)
chain 1: B1 chain 1
chain 2: MSDSEVNQEAKPEVKPEVKPETHINLKVSDGSSEIFFKIKKTTPLRRLMEAFAKRQGKEMDSLRFLYDGIRIQADQTPEDLDMEDNDIIEAHREQIGGATY

Variants of: B1
Assay: yeast two-hybrid (β-galactosidase); gal (induced) bar; vector bait control 2.8; parent: 2.45e+03

Point of comparison: chain 1 L247A, response 2570 β-galactosidase activity units. Against it:
- chain 1 L70A — lower, 2130 β-galactosidase activity units

Variants of: B1
Assay: yeast two-hybrid (β-galactosidase); gal (induced) bar; parent: 2.45e+03

Point of comparison: chain 1 H319Y, response 2070 β-galactosidase activity units. Against it:
- chain 1 N183D — higher, 2140 β-galactosidase activity units
- chain 1 Y123H — higher, 2190 β-galactosidase activity units
- chain 1 Y111H — higher, 2170 β-galactosidase activity units

Variants of: B2
Assay: yeast two-hybrid (β-galactosidase); gal (induced) bar; vector bait control 7.3; parent: 1.95e+03

Point of comparison: chain 1 L70A, chain 1 L247A, response 6.6 β-galactosidase activity units. Against it:
- chain 1 L70A — higher, 7.8 β-galactosidase activity units
- chain 1 L247A — higher, 7.4 β-galactosidase activity units
